B1: NCF4 (parent)
chain: FVKILKDFPEEDDPTNWLRCYYYE

The record followed here is the supplement of paper PMC10567573.
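Note: lentivirally expressed fusions sorted by FACS into six bins by GFP to DsRed ratio, PSI derived from sequencing read proportions per bin multiplied by bin number.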

The variants in the data set derive from B1. In words: protein stability index of a GFP-peptide fusion (GPS, HEK-293T) (PSI 1-6); higher = more stable. The note with it: c terminus: a fixed tail appended.
As to FVKILKDFPEEDDPTNWLRCRYYE, the protein stability index is 1.9.
For FVKILKDFPEEDDPTNWLRCWYYE the value was 1.89.
For FVKILKDFPEEDDPTNWLRCCYYE the value was 1.61; for FVKILKDFPEEDDPTNWLRCFYYE, 1.91.
As for FVKILKDFPEEDDPTNWLRCKYYE, the protein stability index was found to be 2.47.
For FVKILKDFPEEDDPTNWLRCNYYE the value was 3.57; for FVKILKDFPEEDDPTNWLRCMYYE, 1.75.
In the case of FVKILKDFPEEDDPTNWLRCQYYE it was 1.93; in that of FVKILKDFPEEDDPTNWLRCLYYE, 2.62.
For FVKILKDFPEEDDPTNWLRCEYYE the value was 1.41; for FVKILKDFPEEDDPTNWLRCHYYE, 2.55.
Consider FVKILKDFPEEDDPTNWLRCSYYE, for which the protein stability index came to 1.8.
For FVKILKDFPEEDDPTNWLRCIYYE the value was 2.44; for FVKILKDFPEEDDPTNWLRCGYYE, 1.06; for FVKILKDFPEEDDPTNWLRCAYYE, 1.1.
For FVKILKDFPEEDDPTNWLRCDYYE the value was 2.02.
In the case of FVKILKDFPEEDDPTNWLRCVYYE, the protein stability index amounted to 2.53.
In the case of FVKILKDFPEEDDPTTWLRCYYYE it was 2.25; in that of FVKILKDFPEEDDPTYWLRCYYYE, 2.46; in that of FVKILKDFPEEDDPTPWLRCYYYE, 2.55.
For the variant FVKILKDFPEEDDPTDWLRCYYYE, the protein stability index came to 1.7.
In the case of FVKILKDFPEEDDPTRWLRCYYYE it was 1.47; in that of FVKILKDFPEEDDPTFWLRCYYYE, 2.41; in that of FVKILKDFPEEDDPTAWLRCYYYE, 1.61.
In the case of FVKILKDFPEEDDPTEWLRCYYYE it was 2.71.
As to FVKILKDFPEEDDPTWWLRCYYYE, the protein stability index came to 1.58.
For FVKILKDFPEEDDPTQWLRCYYYE the value was 2.05; for FVKILKDFPEEDDPTIWLRCYYYE, 1.75.
In the case of FVKILKDFPEEDDPTSWLRCYYYE it was 1.53; in that of FVKILKDFPEEDDPTCWLRCYYYE, 3.04.
In the case of FVKILKDFPEEDDPTVWLRCYYYE it was 1.82; in that of FVKILKDFPEEDDPTMWLRCYYYE, 2.61.
On to FVKILKDFPEEDDPTKWLRCYYYE, for which the protein stability index came to 1.81.
On to FVKILKDFPEEDDPTLWLRCYYYE, for which the protein stability index is 1.64.
In the case of FVKILKDFPEEDDPTHWLRCYYYE it was 5.27.
For FVKILKDFPEEDDPTGWLRCYYYE the value was 1.61; for FVKILKDFPEEDDPTNWNRCYYYE, 1.86.
For FVKILKDFPEEDDPTNWPRCYYYE the value was 2.42.
For the variant FVKILKDFPEEDDPTNWVRCYYYE, the protein stability index was found to be 2.34.
For FVKILKDFPEEDDPTNWHRCYYYE the value was 1.66; for FVKILKDFPEEDDPTNWRRCYYYE, 1.9; for FVKILKDFPEEDDPTNWTRCYYYE, 2.24.
In the case of FVKILKDFPEEDDPTNWARCYYYE it was 2.1.
In the case of FVKILKDFPEEDDPTNWQRCYYYE it was 1.73; in that of FVKILKDFPEEDDPTNWERCYYYE, 2.13.
FVKILKDFPEEDDPTNWDRCYYYE: the protein stability index was determined as 1.94.
In the case of FVKILKDFPEEDDPTNWGRCYYYE it was 1.92.
For FVKILKDFPEEDDPTNWKRCYYYE the value was 1.55; for FVKILKDFPEEDDPTNWCRCYYYE, 1.58; for FVKILKDFPEEDDPTNWYRCYYYE, 1.96.
In the case of FVKILKDFPEEDDPTNWMRCYYYE it was 1.72; in that of FVKILKDFPEEDDPTNWSRCYYYE, 2.15.
FVKILKDFPEEDDPTNWLREYYYE: the protein stability index came out at 2.12.
In the case of FVKILKDFPEEDDPTNWLRWYYYE it was 1.5; in that of FVKILKDFPEEDDPTNWLRDYYYE, 1.79.
With FVKILKDFPEEDDPTNWLRGYYYE, the protein stability index worked out at 2.06.
In the case of FVKILKDFPEEDDPTNWLRSYYYE it was 1.96.
In the case of FVKILKDFPEEDDPTNWLRVYYYE it was 1.72; in that of FVKILKDFPEEDDPTNWLRQYYYE, 2.03.
In the case of FVKILKDFPEEDDPTNWLRNYYYE it was 2.74; in that of FVKILKDFPEEDDPTNWLRRYYYE, 2.12.
As for FVKILKDFPEEDDPTNWLRYYYYE, the protein stability index came to 1.9.
On to FVKILKDFPEEDDPTNWLRFYYYE, for which the protein stability index is 2.03.
In the case of FVKILKDFPEEDDPTNWLRLYYYE it was 1.69; in that of FVKILKDFPEEDDPTNWLRAYYYE, 1.58.
For FVKILKDFPEEDDPTNWLRHYYYE the value was 1.84.
In the case of FVKILKDFPEEDDPTNWLRMYYYE it was 2.02; in that of FVKILKDFPEEDDPTNWLRKYYYE, 2.32.
Regarding FVKILKDFPEEDDPTNWLRTYYYE, the protein stability index worked out at 2.38.
For FVKILKDFPEEDDPTNWLRPYYYE the value was 1.23; for FVKILKDFPEEDDPTNWLRCYTYE, 2.94; for FVKILKDFPEEDDPTNWLRCYKYE, 1.61.
In the case of FVKILKDFPEEDDPTNWLRCYDYE it was 2.29; in that of FVKILKDFPEEDDPTNWLRCYCYE, 1.92; in that of FVKILKDFPEEDDPTNWLRCYNYE, 1.56.
As for FVKILKDFPEEDDPTNWLRCYSYE, the protein stability index was 1.38.
Take FVKILKDFPEEDDPTNWLRCYWYE: the protein stability index worked out at 2.28.
In the case of FVKILKDFPEEDDPTNWLRCYEYE it was 2.1; in that of FVKILKDFPEEDDPTNWLRCYRYE, 2.46; in that of FVKILKDFPEEDDPTNWLRCYLYE, 2.24.
In the case of FVKILKDFPEEDDPTNWLRCYHYE, the protein stability index was 1.82.
In the case of FVKILKDFPEEDDPTNWLRCYPYE it was 1.41.
For FVKILKDFPEEDDPTNWLRCYQYE the value was 3.25.
Regarding FVKILKDFPEEDDPTNWLRCYAYE, the protein stability index was found to be 3.02.
FVKILKDFPEEDDPTNWLRCYGYE: the protein stability index amounted to 2.64.
Regarding FVKILKDFPEEDDPTNWLRCYIYE, the protein stability index turned out to be 1.75.
For FVKILKDFPEEDDPTNWLRCYVYE the value was 1.03.
For FVKILKDFPEEDDPTNWLRCYMYE the value was 2.33.
For the variant FVKILKDFPEEDDPTNWLRCYFYE, the protein stability index is 1.65.
With FVKILKDFPEEDDPTNWLRCYYHE, the protein stability index was determined as 1.51.
In the case of FVKILKDFPEEDDPTNWLRCYYDE it was 1.57.
As for FVKILKDFPEEDDPTNWLRCYYPE, the protein stability index was determined as 3.56.
In the case of FVKILKDFPEEDDPTNWLRCYYEE it was 2.52; in that of FVKILKDFPEEDDPTNWLRCYYGE, 1.96.
